The values below are quoted from earlier work in paper PMC10947324.

For orientation: pKa means the pH at which an ionisable group is half protonated.

Some targets named below: His14 (UniProt position 685, GYEVHHQKLVF); His13 (UniProt position 684, SGYEVHHQKLV); His6 (UniProt position 677, DAEFRHDSGYE).
Conditions in all cases: monomeric, unstructured Abeta

On to “Amyloid-beta peptide (Abeta), monomeric (Homo sapiens (inferred; the article discusses the peptide of Alzheimer's disease patients))”, for which the pKa with His14 was 6.67; in the data set with His13, 6.64; with His6, 6.67.
